Paper doi:10.1101/2025.10.31.685832

Biological target: MelA1 (Candidatus Melainabacteria bacterium isolate SJ512)
Assay: SEC; size-exclusion chromatography of MelA1; column and buffer not told

stoichiometry N: 2
Substance: MelA1 (natural protein)
